The data set concerns the target Dnmt1 (N-His) (UniProt P13864). The data set can be described thus: MST. The note with it: EMSA: 20 mM Tris pH 7.6, 30 mM KCl, 5 mM EDTA, 1 mM DTT, 5 uM SAM, 20% glycerol, 26 C, MST: 10 mM Tris/Cl, 150 mM KCl, 0.75 mM MgCl2, 0.25 mM EGTA. On the technique in general: Mobility shift assays separate free from complexed probe on a gel.
Sequence of UniProt P13864 (P13864 whole entry): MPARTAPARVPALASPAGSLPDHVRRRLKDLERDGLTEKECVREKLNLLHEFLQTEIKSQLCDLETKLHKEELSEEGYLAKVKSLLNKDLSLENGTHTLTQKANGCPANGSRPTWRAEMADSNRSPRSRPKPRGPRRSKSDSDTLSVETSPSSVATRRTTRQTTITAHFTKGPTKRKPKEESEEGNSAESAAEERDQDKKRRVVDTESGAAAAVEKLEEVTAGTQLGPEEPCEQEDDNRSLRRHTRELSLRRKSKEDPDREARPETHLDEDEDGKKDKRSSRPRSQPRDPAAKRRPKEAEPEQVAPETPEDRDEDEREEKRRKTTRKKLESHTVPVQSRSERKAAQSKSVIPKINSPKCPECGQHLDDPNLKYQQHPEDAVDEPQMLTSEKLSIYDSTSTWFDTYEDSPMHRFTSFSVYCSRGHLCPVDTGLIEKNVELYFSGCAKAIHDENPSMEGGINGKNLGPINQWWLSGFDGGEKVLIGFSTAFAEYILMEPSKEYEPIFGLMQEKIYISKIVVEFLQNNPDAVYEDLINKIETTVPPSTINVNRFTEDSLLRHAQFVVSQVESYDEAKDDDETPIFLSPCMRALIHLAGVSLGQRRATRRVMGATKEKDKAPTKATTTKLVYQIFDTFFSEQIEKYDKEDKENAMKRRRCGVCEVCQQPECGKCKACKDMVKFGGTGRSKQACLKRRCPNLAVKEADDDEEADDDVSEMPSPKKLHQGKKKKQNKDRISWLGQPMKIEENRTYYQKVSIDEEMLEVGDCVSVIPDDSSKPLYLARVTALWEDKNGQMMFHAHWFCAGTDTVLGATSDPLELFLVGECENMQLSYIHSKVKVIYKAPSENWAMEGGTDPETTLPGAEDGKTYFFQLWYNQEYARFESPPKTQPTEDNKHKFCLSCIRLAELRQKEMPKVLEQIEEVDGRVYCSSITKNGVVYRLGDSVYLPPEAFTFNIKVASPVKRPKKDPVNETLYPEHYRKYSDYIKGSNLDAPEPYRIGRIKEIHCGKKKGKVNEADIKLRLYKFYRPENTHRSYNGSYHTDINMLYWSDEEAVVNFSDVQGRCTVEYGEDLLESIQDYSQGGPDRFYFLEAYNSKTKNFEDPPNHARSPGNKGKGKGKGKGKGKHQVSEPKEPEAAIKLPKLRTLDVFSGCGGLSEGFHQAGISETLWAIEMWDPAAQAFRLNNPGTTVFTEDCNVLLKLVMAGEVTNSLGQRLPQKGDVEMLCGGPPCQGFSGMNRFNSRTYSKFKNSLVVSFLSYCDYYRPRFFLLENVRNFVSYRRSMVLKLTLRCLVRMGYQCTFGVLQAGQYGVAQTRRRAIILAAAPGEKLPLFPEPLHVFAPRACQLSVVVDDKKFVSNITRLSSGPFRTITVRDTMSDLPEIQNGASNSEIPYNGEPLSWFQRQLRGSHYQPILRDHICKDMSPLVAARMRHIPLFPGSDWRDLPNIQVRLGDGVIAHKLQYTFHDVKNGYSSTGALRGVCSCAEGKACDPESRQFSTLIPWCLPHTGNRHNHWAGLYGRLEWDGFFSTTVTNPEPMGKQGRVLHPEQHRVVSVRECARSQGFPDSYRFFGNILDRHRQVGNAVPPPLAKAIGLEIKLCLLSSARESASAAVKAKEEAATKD

With “TGCGGAATCGTCTAACGCGTGGAATCGTCCGATTGAGGTCGCGATCTCGAATCACGGTGC (double strand) [AIR60 hemi-methylated 60 bp DNA]”, the binding signal (fold higher affinity with SAM) (160 uM SAM, 5-methyl-C at Z positions of the lower strand (C5, C12, C18, C20, C29, C33, C40, C42, C49; strand printed only up to TTAGAZG, so the CG in the last 8 nt is unknown)) is 2. “TGCGGAATCGTCTAACGCGTGGAATCGTCCGATTGAGGTCGCGATCTCGAATCACGGTGC (double strand) [AIR60 non-methylated 60 bp DNA]”: the K half came to 1500 nM.

Source of the values: publication PMC4619679.
